Measurements: PMC12872393, “NCOA4 initiates ferritinophagy by avidly binding GATE16 using two short linear interaction motifs” (Life Science Alliance, 2026)

B1: biotinylated AviTag-His6-NCOA4^383−522-MBP, Q13772 486F:A (protein)
chain: SMVTEDWLVQNHQDPCKVEEVCRANEPCTSFAECVCDENCEKEALYKWLLKKEGKDKNGMPVEPKPEPEKHKDSLNMWLCPRKEVIEQTKAPKAMTPSRIADSAQVIKNSPLSEWLIRPPYKEGSPKEVPGTEDRAGKQK
B2: biotinylated AviTag-His6-NCOA4^383−522-MBP, Q13772 413F:A (protein)
chain: SMVTEDWLVQNHQDPCKVEEVCRANEPCTSAAECVCDENCEKEALYKWLLKKEGKDKNGMPVEPKPEPEKHKDSLNMWLCPRKEVIEQTKAPKAMTPSRIADSFQVIKNSPLSEWLIRPPYKEGSPKEVPGTEDRAGKQK

Biological target: (GST-GATE16)2, P60520
Assay: BLI
Conditions: chain shown with the change; 5 µM (GST-GATE16)2; NCOA4 construct immobilized to the probe; parent: est. 0.105; read off a plot

(GST-GATE16)2, P60520, sequence (P60520 whole entry): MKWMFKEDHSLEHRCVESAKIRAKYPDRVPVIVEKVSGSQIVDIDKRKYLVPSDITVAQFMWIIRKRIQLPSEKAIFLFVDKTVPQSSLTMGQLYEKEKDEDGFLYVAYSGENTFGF

Binder | response [nm]
B1 | 0.026
B2 | 0.056
